Results on three substances are retold here after US20220249369A1, “BIOLOGICAL BITS AS COMPUTABLE ELEMENTS WITHIN LIVING SYSTEMS” (GEORGIA TECH RESEARCH CORPORATION, priority 2018, published 2022).

The target of one assay is plasmin (Homo sapiens, UniProt P00747). The experiment in a line: Protease cleavage assay, U-gate on two-state protease bit. As to conditions: n=3; for state probability (relative cleavage velocity) after first U-gate: plasmin exposed to state 0 and state 1 substrates. The format is biochemical. Here is the method:
Protease cleavage assays: All protease cleavage assays were performed with a BioTek Cytation 5 Imaging Plate Reader, taking fluorescent measurements at 485/528 nm and 540/575 nm (excitation/emission) for read-outs measuring peptide substrates terminated with FITC (Fluorescein isothiocyanate) and 5-TAMRA (5-Carboxytetramethylrhodamine), respectively. Kinetic measurements were taken every minute over the course of 60-120 minutes at 37° C. West Nile Virus NS3 protease (WNVp) and Tobacco Etch Virus protease (TEVp), along with their substrates, inhibitors and buffers were obtained from Anaspec, Inc. (Fremont, Calif.). Phospholipase C (PLC), Phosphatidylinositol-Specific (from Bacillus cereus) was purchased from Thermo Fisher Scientific (Waltham, Mass.). Activity RFU measurements were normalized to time 0 measurement, and as such represent fold change in signal. Granzyme B (GzmB) was purchased from PeproTech, Inc. (Rocky Hill, N.J.). Thrombin and Factor XIa were purchased from Haematologic Technologies (Essex, Vt.). Outer Membrane Protease T (OmpT, Protease 7) was purchased from Lifespan Biosciences (Seattle, Wash.). C1r was purchased from Millipore Sigma (Burlington, Mass.). GzmB, Thrombin, Factor XIa, and C1r fluorescent peptide substrates were custom ordered from CPC Scientific (Sunnyvale, Calif.). OmpT fluorescent peptide substrate was custom ordered from Genscript (Piscataway, N.J.). See Table 1 and Table 2 for more information regarding proteases, substrates, and inhibitors.
For FIGS. 5G-5I and 5N-5Q: 2 uL of thrombin (10.1 mg/mL) or plasmin (6.9 mg/mL) were added to 18 uL of respective state 1 or state 0 substrate (2 uM). Velocities of Thrombin and Plasmin cutting their respective state 1 or state 0 substrates were calculated over the first 5 minutes of incubation. These velocities were normalized by the sum of the state 1 and state 0 velocity. Therefore, the values plotted as probability in FIG. 4 are relative velocities. […]

Another assay deals with DH5α Escherichia coli. It counts as cell-based. As to conditions: 37° C., 1 hour. An excerpt:
FIGS. 8A-8B show the results of unlocking peptide caged liposomes with increasing peptide crosslinking densities (levels 0-8). Eight levels of increasing peptide cage crosslinking were used to determine the number of bacteria required to unlock each level. FIG. 8C is a graph showing bacterial cytotoxicity measurement of drug-loaded liposomes. Conditions are moving from left to right: Bacteria only control, bacteria plus free drug, bacteria plus drug-loaded liposome without lipase, and bacteria plus drug-loaded liposome with lipase. Samples were incubated with bacteria at 37° C. for eight hours and plated. CFU were quantified to estimate bacteria viability. Error bars are plotted as standard deviation (n=3). RFU stands for “Relative Fluorescence Unit” and is plotted as fold change (FC) from initial fluorescence at time=0. Bacterial Culture and Cytotoxicity Assay: DH5α Escherichia coli were cultured in LB broth (Lennox) at 37° C. and plated on LB agar (Lennox) plates. LB broth was purchased from Millipore Sigma (Burlington, Mass.) and LB agar was purchased from Invitrogen (Carlsbad, Calif.). AMP and locked AMP were custom ordered from Genscript (Piscataway, N.J.). […] Bacterial cell viability was measured by making eight 10-fold serial dilutions, and plating three 10 μL spots on an LB agar plate. Plates were incubated overnight at 37° C., and CFUs were counted. […]

Where no end group is shown, it is not given here. [ ]: non-standard residue; d: D form. The star is where a group is joined. 5FAM = O=C1OC2(c3ccc(O)cc3Oc3cc(O)ccc32)c2ccc(C(=O)*)cc21

Chain of plasmin (P00747 581-810 limits assumed, species assumed): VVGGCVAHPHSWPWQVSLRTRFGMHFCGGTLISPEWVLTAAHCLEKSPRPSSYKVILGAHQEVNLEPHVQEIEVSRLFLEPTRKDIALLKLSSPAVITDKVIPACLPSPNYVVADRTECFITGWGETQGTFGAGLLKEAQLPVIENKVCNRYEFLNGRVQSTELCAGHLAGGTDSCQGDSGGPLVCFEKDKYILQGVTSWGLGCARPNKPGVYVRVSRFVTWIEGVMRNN
Chain of plasmin (P00747 97-580 partner limits assumed, species assumed): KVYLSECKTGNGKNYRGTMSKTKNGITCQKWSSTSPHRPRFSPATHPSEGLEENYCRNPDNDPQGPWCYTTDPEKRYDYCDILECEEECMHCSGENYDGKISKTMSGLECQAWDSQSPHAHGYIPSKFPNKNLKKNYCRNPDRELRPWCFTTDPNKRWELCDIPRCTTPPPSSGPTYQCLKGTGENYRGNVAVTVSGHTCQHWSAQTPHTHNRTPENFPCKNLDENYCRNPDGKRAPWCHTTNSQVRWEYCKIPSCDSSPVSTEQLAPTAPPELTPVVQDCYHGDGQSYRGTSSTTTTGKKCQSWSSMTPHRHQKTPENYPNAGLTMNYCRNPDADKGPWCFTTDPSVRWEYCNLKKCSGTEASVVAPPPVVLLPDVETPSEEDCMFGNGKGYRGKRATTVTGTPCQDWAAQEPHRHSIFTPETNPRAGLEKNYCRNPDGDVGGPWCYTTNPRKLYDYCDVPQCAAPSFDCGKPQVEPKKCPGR

“5FAM-GLQRALEI-K(CPQ2)-k-C (5FAM-GLQRALEIK(CPQ2)[dK]C) [CC9, quenched fluorescent plasmin substrate (state 0)]”: the “state probability (relative cleavage velocity) after first U-gate” value with plasmin is 45%. The “state 0 probability (relative cleavage velocity) after second U-gate” value with plasmin (state 0 substrate added in large molar excess) was found to be 93%.

Consider “5FAM-KYLGRSYKV-K(CPQ2)-C (5FAM-KYLGRSYKVK(CPQ2)C) [CC6, quenched fluorescent protease substrate (state 1)]”, for which the “state probability (relative cleavage velocity) after first U-gate” value in the assay with plasmin is on record as 55%.

As to “EEEEEEEEENLYFQGRRRRRRRRR [Locked AMP p1, polyarginine AMP locked by polyglutamic acid via TEV-cleavable linker]”, in the assay with DH5α Escherichia coli (locked drug without protease), the “cytolytic activity against bacteria compared to untreated controls” value is reported as “no significant cytolytic activity”. Also, the “reduction in bacterial colonies” value with DH5α Escherichia coli (protease-cleaved (TEVp)) is reported as “significant reduction in bacterial colonies”.
